# Measured values published in patent US12410253B2, “Compositions comprising anti-NRP2 antibodies” (aTyr Pharma, Inc., priority 2019, dated 2025).
# Entries after “also recorded” stand apart in the source; their conditions may differ.
# T1: NRP2/FLT4(VEGFR3) (Homo sapiens, UniProt O60462)
# T1 construct: The complete extracellular domain and transmembrane helices of NRP2a (version 2), NRP2b (version 5); expressed in transfected cells; host or cells: Expi293, transient co-transfection
# T1 sequence (O60462 23-859 isoform O60462-3 limits assumed): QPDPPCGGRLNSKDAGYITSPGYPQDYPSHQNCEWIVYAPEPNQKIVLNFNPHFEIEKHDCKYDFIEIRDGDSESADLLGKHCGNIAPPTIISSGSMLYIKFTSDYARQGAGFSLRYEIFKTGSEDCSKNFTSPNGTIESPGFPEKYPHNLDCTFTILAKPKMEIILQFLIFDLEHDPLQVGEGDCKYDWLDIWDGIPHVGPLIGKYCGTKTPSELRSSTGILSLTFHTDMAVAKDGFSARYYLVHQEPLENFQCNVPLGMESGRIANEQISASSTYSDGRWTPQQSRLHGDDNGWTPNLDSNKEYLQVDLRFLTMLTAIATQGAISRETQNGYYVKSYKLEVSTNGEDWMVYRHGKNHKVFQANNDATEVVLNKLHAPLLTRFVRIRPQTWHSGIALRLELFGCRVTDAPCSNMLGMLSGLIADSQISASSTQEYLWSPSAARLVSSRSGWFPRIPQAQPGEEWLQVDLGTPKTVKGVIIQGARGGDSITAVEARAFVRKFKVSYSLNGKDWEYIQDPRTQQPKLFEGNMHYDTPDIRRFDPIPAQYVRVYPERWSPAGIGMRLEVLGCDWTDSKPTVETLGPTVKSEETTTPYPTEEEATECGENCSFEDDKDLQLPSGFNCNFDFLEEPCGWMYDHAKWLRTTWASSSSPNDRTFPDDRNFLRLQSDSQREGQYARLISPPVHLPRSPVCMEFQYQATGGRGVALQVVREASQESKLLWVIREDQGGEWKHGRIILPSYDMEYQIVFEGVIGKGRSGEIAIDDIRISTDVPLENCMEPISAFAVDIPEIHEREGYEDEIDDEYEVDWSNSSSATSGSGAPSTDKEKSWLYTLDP
# What was measured:
# A549 cells = experiment: A549 NSCLC xenograft in Nu/J mice, combination with 5-FU; type: in vivo; conditions: for tumor growth in combination with 5-FU: 12.5 mg/kg IP BIW plus 5-FU 2.5 mg/kg TIW from day 16, significant on day 51 vs control IgG/5-FU
# Description: This study aimed to investigate the in vivo anticancer potential of aNRP2-10v10 in combination with fluorouracil (5-FU) in a human xenograft mouse model using A549 cells (NSCLC cancer model).
# Treatment Regimen. Twenty (20) Nu/J mice (Jackson Laboratory, female, 6-8 wks old) were used in this study. […] The dosing regimen is shown in Table E7 below; In brief animals received injections of 12.5 mg/kg of aNRP2-10 or IgG control, which were administered to mice intraperitoneally twice a week according to the protocol below (Table E7). Both groups also received 2.5 mg/kg of 5-FU three times a week.
# Human A549 cell line was purchased from ATCC.
# [1] = system: human lymphatic endothelial cell (HLEC); experiment: HLEC migration toward VEGF-C (modified Boyden chamber, xCELLigence); type: cell-based; conditions: 191.5 pM VEGF-C, 24 hour period
# Description: Migration assays were performed using a modified Boyden Chamber with […] pore size membrane, 16-well CIM plate (ACEA Biosciences.) Both sides of the membrane were coated with 5 μg/ml Fibronectin (Sigma) for 30 minutes at 37° C., 5% CO2. 160 μl of 191.5 pM VEGF-C or assay medium (0.1% BSA, ECM) was added to the lower chamber, the upper well attached, 50 ul assay medium added to the upper chamber before replacing the lid, and the plate was incubated for 1 hour at 37° C., 5% CO2 before baseline measurement was taken. HLECs were harvested, washed, and re-suspended in assay medium at 100,000 cells/well with aNRP2 antibody or control proteins and incubated for 30 minutes at 37° C., 5% CO2. Cells were added to the plate and incubated at room temperature for 30 minutes. Plate was inserted into xCELLigence RTCA DP (ACEA Biosciences) instrument, and migration was measured real-time every 5 minutes over a 24 hour period (2 wells per condition).
# NRP2/FLT4(VEGFR3) = biological target: T1, NRP2/FLT4(VEGFR3); experiment: Split-luciferase receptor dimerization assay, NRP2/FLT4 with VEGF-C; type: cell-based; conditions: antibody 100 nM; ligand induced dimerization
# Description: (§1) To further extend the assessment of the biological activity of the anti-NRP2 antibodies, their activity was assessed in a receptor dimerization assay. In brief, vectors encoding a split luciferase pBiT1.1 and pBiT2.1 were obtained from Promega corporation (Madison, Wisconsin). The complete extracellular domain and transmembrane helices of NRP2a (version 2), NRP2b (version 5) (See table N1), FLT4 (VEGFR3), KDR (VEGFR2), and plexin A1 (PLXNA1) were cloned into the vectors and screened for optimal orientation, receptor density, and ligand induced dimerization, following established methods. Expi293 cells (Fisher) were transfected at 1 million cells/mL ˜20 hours prior to the assay with NRP2 and a co-receptor at equal mass amounts. Cells were counted, and 100,000 live cells were plated in a well of a white luminometer plate in Live Cell Imaging Solution (Fisher). Nano-Glo assay substrate (Promega) was added, and the plate was read on a Glomax 96 luminometer at room temperature to establish baseline luminescence. Antibodies were added to the well at 100 nM and the plate was again read to establish a new baseline and monitor the effects of the antibodies on spontaneous receptor dimerization. Depending on the receptor pair, typically 200 nM SEMA3F-p95 (aTyr Pharma), 2 nM VEGF-C(R&D Systems, Minnesota), or 2 nM VEGF165 (R&D Systems, Minnesota) were then added and the plate was again read to measure dimerization of receptors. Normalized responses for each individual well were calculated to the time point prior to addition of ligand, then normalized to no-antibody/no-ligand (baseline signal). Replicates were then processed to give average response and standard deviation. Results are summarized in Table E3 below, and shown graphically in FIGS. 3-10.
# NRP2/PLXNA1 = experiment: Split-luciferase receptor dimerization assay, NRP2/PLXNA1 with SEMA3F; type: cell-based, human; conditions: antibody 100 nM; ligand induced dimerization
# Description: as §1
Molecule,tumor growth in combination with 5-FU (A549 cells),tumor growth in combination with 5-FU (A549 cells; listed as aNRP2-10),toxicity by clinical observations and body weights (A549 cells; combination with 5-FU),migration of HLEC cells towards VEGF-C [1],effect on NRP2-VEGFR3 (FLT4) heterodimerization (in words) (NRP2/FLT4(VEGFR3)),effect on NRP2-plexin heterodimerization (in words) (NRP2/PLXNA1)
"aNRP2-10v10: humanized, affinity matured anti-NRP2 antibody, target domain b1, VEGF-C blocking; VH SEQ ID NO: 49, VL SEQ ID NO: 50 (antibody, V domains shown, Variable heavy chain region; Light chain variable region) VH: EVQLVQSGAEVKKPGATVKISCKVSGFNIKDYYVHWVQQAPGKGLEWMGRIDVEDDETKYAPKFQGRVTITADTSTDTAYMELSSLRSEDTAVYYCATPIYGAREAWFAYWGQGTLVTVSS VL: DIQMTQSPSSLSASVGDRVTITCTASSSVSSSYLHWYQQKPGKAPKLLIYRTSNLASGVPSRFSGSGSGTDFTLTISSLQPEDFATYYCHQYYRSPPTFGGGTKVEIK",enhances activity of the chemotherapeutic drug 5-FU,performed better than 5-FU with control IgG,No obvious increased toxicity,inhibited by both NRP2 antibodies to levels consistent with positive control antibodies; also recorded: effective block the migration of HLEC cells towards VEGF-C in a dose dependent manner,potently inhibit,without significantly inhibiting
"aNRP2-11v7: humanized, affinity matured anti-NRP2 antibody, target domain b2; VH SEQ ID NO: 51, VL SEQ ID NO: 52 (antibody, V domains shown, Variable heavy chain region; Light chain variable region) VH: QVQLVQSGAEVKKPGASVKVSCKASGYTFTSFGISWVRQAPGQGLEWIGEIYPRSGNTYYNENFKGRATMTADKSTSTAYMELRSLRSDDTAVYYCARSSGYYGSTPFPYWGQGTLVTVSS VL: DIQMTQSPSSLSASVGDRVTITCRASQDISNYLNWYQQKPGKAVKLLIYYTSRLHSGVPSRFSGSGSGTDYTFTISSLQPEDIATYYCQQGNTLPWTFGGGTKVEIK",–,–,–,inhibited by both NRP2 antibodies to levels consistent with positive control antibodies; also recorded: effective block the migration of HLEC cells towards VEGF-C in a dose dependent manner,ability to inhibit,increased the ligand induced dimerization signal
